Source: PMC6398935 (The Biochemical journal, 2016)

B1: murine anti-fHbp monoclonal antibody 12C1 (IgG2b) (antibody, V domains shown)
VH: QVQLQESGPELVKPGASVKISCKASGYSFSDYNMSWVKQSNGKSLEWIGIIDPKYGTINYNQKFKGKATLTVDQASSTAYMQLNSLTSEDSAVYYCVRDYYGSSYFDYWGQGTTLTVSS
VL: DIVLTQSPSSIYASLGERVTLTCKASQDIHNYLNWFQQKPGKSPKTLIYRANRLVDGVPSRFSGGGSGQDYSLTISSLEFEDIGIYYCLQYDEFPPTFGGGTRLEIK
notes: also called mAb 12C1

What follows are molecules tested against murine anti-fHbp monoclonal antibody JAR5 (IgG2b) (mouse) (assay: SPR). Conditions: not given.
Chain of murine anti-fHbp monoclonal antibody JAR5 (IgG2b) (mouse) (heavy, as listed by the source, chain 1 of 2, other chains not shown): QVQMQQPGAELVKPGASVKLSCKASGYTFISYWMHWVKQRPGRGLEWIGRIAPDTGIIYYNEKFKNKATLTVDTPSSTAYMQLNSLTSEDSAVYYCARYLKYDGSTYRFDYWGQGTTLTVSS

| Molecule | Kd [nM] |
| --- | --- |
| fHbp variant 1.1 Asp85Ala mutant (natural protein) | 20 |
| fHbp variant 1.1 Gln87Ala mutant (natural protein) | 1.7 |
| fHbp variant 1.1 Gln115Ala mutant (natural protein) | 23 |
| fHbp variant 1.1 Gly121Ala mutant (natural protein) | 20 |
| fHbp variant 1.1 Lys122Ala mutant (natural protein) | 17 |
| fHbp variant 1.1 Lys122Ser mutant (natural protein) | 13 |

Each molecule was assayed against T1, factor H binding protein (fHbp) variant 1.1, wild type (Neisseria meningitidis serogroup B …, UniProt Q9JXV4) (assay: SPR; fHbp covalently immobilised by amine coupling on a CM5 chip (~500 RU); mAbs at 100 nM in HBS-EP injected one after the other (first mAb to saturation, then the second), both orders; 25 °C). Conditions: both partners purified.
T1 construct: source: E. coli BL21(DE3), purified

| Molecule | binding result |
| --- | --- |
| B1 | binds |
